From publication PMC2174231 (The Journal of Cell Biology, 1999)

T1: PML wild-type fused to GAL4-DBD (UniProt P29590 1-882)
T1 sequence: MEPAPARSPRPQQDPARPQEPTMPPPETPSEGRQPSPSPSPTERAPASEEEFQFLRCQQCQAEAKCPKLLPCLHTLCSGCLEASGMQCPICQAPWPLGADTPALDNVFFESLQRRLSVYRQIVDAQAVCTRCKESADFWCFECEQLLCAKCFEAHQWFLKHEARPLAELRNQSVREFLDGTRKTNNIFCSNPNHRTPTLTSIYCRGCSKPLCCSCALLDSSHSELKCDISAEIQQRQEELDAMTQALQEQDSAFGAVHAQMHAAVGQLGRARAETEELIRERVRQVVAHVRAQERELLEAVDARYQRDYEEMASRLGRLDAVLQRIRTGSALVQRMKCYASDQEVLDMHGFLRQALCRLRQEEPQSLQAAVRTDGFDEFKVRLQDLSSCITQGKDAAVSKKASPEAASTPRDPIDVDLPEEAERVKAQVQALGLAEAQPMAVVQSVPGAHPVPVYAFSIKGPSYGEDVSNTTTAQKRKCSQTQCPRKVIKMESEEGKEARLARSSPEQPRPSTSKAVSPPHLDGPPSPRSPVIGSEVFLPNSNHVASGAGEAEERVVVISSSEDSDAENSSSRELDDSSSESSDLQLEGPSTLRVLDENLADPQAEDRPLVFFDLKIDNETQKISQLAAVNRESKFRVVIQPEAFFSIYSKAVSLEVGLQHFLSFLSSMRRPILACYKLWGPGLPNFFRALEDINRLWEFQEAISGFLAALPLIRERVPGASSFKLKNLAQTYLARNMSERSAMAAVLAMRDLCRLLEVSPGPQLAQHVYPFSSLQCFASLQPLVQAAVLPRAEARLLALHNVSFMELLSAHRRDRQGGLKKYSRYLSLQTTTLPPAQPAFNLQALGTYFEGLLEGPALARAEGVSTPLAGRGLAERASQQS

B1: Daxx amino acids 488-740 fused to NLS-VP16 (domain or fragment)
chain: AGKDGDKSPMSSLQISNEKNLEPGKQISRSSGEQQNKGRIVSPSLLSEEPLAPSSIDAESNGEQPEELTLEEESPVSQLFELEIEALPLDTPSSVETDISSSRKQSEEPFTTVLENGAGMVSSTSFNGGVSPHNWGDSGPPCKKSRKEKKQTGSGPLGNSYVERQRSVHEKNGKKICTLPSPPSPLASLAPVADSSTRVDSPSHGLVTSSLCIPSPARLSQTPHSQPPRPGTCKTSVATQCDPEEIIVLSDSD
B2: Daxx amino acids 625-740 fused to NLS-VP16 (domain or fragment)
chain: SGPPCKKSRKEKKQTGSGPLGNSYVERQRSVHEKNGKKICTLPSPPSPLASLAPVADSSTRVDSPSHGLVTSSLCIPSPARLSQTPHSQPPRPGTCKTSVATQCDPEEIIVLSDSD
B3: Daxx amino acids 433-740 fused to NLS-VP16 (domain or fragment)
chain: AETDDEDDEESDEEEEEEEEEEEEEATDSEEEEDLEQMQEGQEDDEEEDEEEEAAAGKDGDKSPMSSLQISNEKNLEPGKQISRSSGEQQNKGRIVSPSLLSEEPLAPSSIDAESNGEQPEELTLEEESPVSQLFELEIEALPLDTPSSVETDISSSRKQSEEPFTTVLENGAGMVSSTSFNGGVSPHNWGDSGPPCKKSRKEKKQTGSGPLGNSYVERQRSVHEKNGKKICTLPSPPSPLASLAPVADSSTRVDSPSHGLVTSSLCIPSPARLSQTPHSQPPRPGTCKTSVATQCDPEEIIVLSDSD

Molecular target: T1, PML wild-type fused to GAL4-DBD
Experiment: two-hybrid

Row | Binder | fold strength of interaction (β-galactosidase) against full-length Daxx | fold weaker interaction (β-galactosidase) against Daxx 488-740
1 | B1 | ~3 fold | 
2 | B2 | ~3 fold | 
3 | B3 |  | ~20 fold weaker
